In this assay the target is human Fn14 on cells (NFkB/HEK293 reporter cells, A375 cells) (human) (UniProt Q9NP84). The assay can be described thus: cell-based or functional assay.

IC50 (ng/mL), inhibition of Tweak-induced NFkB activation (luciferase reporter, NFkB/HEK293 cells), geometric mean of three trials data for one molecule are collected here from patent US20210388096A1.

human Fn14 on cells (NFkB/HEK293 reporter cells, A375 cells) (human), sequence (Q9NP84 28-129): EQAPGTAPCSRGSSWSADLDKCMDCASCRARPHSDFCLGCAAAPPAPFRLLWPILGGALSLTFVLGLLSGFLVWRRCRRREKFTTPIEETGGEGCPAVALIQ

B1: mouse anti-human Fn14 antibody CRCBT-06-002 (antibody, from another filing, V domains shown)
VH: EVKLQQSGGGLVQPGGSMKLSCVASGFTFSYYWMNWVRQSPEQGLEWIAEIRLQSNDYPTHYAESVKGRFTISRDDSKNSVYLQMNNLRPEDTGIYYCACRYADYFDHWGQGTTLTVSS
VL: DTVLTQSPASLVVSLGQRATISCRASQSVSTSDYSYIHWYQQKPGQPPKFLIKYASNRDSGVPARFSGSGSGTDFTLNIHPVEEDDTAIYYCQHSWEIPPTFGAGTKLELQR
B1: the IC50 (ng/mL), inhibition of Tweak-induced NFkB activation (luciferase reporter, NFkB/HEK293 cells), geometric mean of three trials is 115 ng/mL.
